Results from the DeepSol protein solubility set.

Experiment: soluble on expression in E. coli; label from the status in PepcDB or PDB records

Row | Sequence | soluble on expression in E. coli
1 | MTRPVTLSEPHFSQHTLNKYASLMAQGNGYLGLRASHEEDYTRQTRGMYLAGLYHRAGKGEINELVNLPDILGMEIAINGEVFSLSREAWQRELDFASGELRRSVVWRTSNGAGYTIASRRFVSADQLPLIALEITIMPLDADASVLISTGIDATQTNHGRQHLDETQVRVFGQHLMQGIYTTQDGRSDVAISCCCQVSGDVQQCYTAKERRLLQHTSTQLHAGETVTLQKLVWIDWRDDRQAALDEWGSVSLRQLEMCAQQSYDQHLAASTENWRQWWQKRRITVNGGDAHDQQALDYALYHLRIMTPAHGERSSIAAKGLTGEGYKGHVFWDTEVFLLPFHLFSDPTVARSLLRYRWHNLPGAQEKARRNGWQGALFPWESARSGEEETPEFAAINIRTGLRQKVASAQAEHHLVADIAWAVIQYWQTTGDESFIAHEGMALLLETAKFWISRAVRVNDRLEIHDVIGPDEYTEHVNNNAFTSYMVYYNVQQALSIARQFGCSDDAFIHRAEMFLKELRLPEIQPDGVLPQDDSFMTKPAINLAKYKAAAGKQTILLDYSRAEVNEMQILKQADVVMLNYMLPEQFSSASCLANLQFYEPRTIHDSSLSKAIHGIVAARCGLLTQSYQFWREGTEIDLGADPHSCDDGIHAAATGAIWLGAIQGFAGVSVRDGELHLNPALLEQWQQLSFPLFWQGCELQVTLDAQRIAIRTSAPVSLRLDGQLISVAEESVFCLGDFILPFNGTATTHQEDE | not soluble
2 | MLDTQTIAIVKSTIPLLAATGPKLTAHFYERMFKHHPELKNIFNMSNQSSGDQREALFNAICAYATNIENLAALLPTVERIAQKHTSLNIQPEHYPIVGEHLIATLDELFSPGQAVLDAWAKAYGVLADVFIQRESQIYQQSETETGGWRTLRRFRIIKKEQQSEVICSFVLAPEDGGQVLHYKPGQYLGIYIEHESLEFQEIRQYSLTTAPNGKTYRIAVKREEQGTVSNLLHRELNEGDIVRIAPPRGDFFLDVSPDTPVALISAGVGQTPMLSMLNTLYSQQHAAPVHWLHAAENGRVHAFADEVSAIAAKMPNLSRHVWYREPDLQDKHGEDYHSQGLMDLSSYQWLADDPKRHYYFCGPLPFMQFIGRQLLAQGIAPEQIHYECFGPHKVI | not soluble
3 | MSLILIKNVSYYIDNNLNVHENCDILIEKVENSEIKLTTGKNLLEKLNLNQNDLKIISGEKKCAIPGLYNAHTHVPMTLLRGIADDMILQDWLNQKIWPNEAKLNKNDVYYGSLLGCLEMLRFGVTSFNEMYFFSEEILKATKEIGLNAQVSYPIIDFGTPEEQSIDKLLTSAESFVKNNVGEKNIKVGIAPHAPYTCSEETYQKCSEISNDYNVNMHTHVSETRYEVVELENKIGMRPVEYLEKIGVLNEKLHAAHCVWITKDEAKKLAKNNAKVLHCPTSNMKLASGGVMPLFELLEYGADISVGTDGPASNNNLDILKEMKMTSLLHKAHRWDPTVAGIDTVLKMGINSESIEIKNNDIILIDLDSAHLRPFNNIKSNIVYSAFGNDVDTVIVGGNILLENKKYKFSETFISNIYKNIQKITEKFEEGHHHHHH | not soluble
4 | MASTGLRVDLYEEHGRVGMPEHCTGIVSERTVNTIGREARETIIDSYDSLEIRFRGETLAVLDVGTVYRLDRVRLEELLLESLMSLGGRAQLGKRVHSVGIEGSVKAGGSEARYDAVILADGAHGELHRMLDLGYRGDYYYGLNILVPGKRESTILVDFILDRGLAFTWDVPTVGSVSVAGAMGTLAGVKRFFEVLKPRAFKVYGGRIPAGPPAERLRRGRVYVVGDAGGLVKPLSGGGLYPNAKAAKLAASLIKRGLDVGEALEKSLSIVSHELRAQHAVARLVYGTRVLETISRAVGGAPLRLRLDYDTHHQLVISTLSQVGALSSQRLAAAALRGGGLEAPLSLVKVLYHSSASAYKRLASGRLPGVLEHHHHHH | not soluble
5 | MTRFAEKVAIITGSSNGIGRATAVLFAREGAKVTITGRHAERLEETRQQILAAGVSEQNVNSVVADVTTDAGQDEILSTTLGKFGKLDILVNNAGAAIPDSQSKTGTAQSIESYDATLNLNLRSVIALTKKAVPHLSSTKGEIVNISSIASGLHATPDFPYYSIAKAAIDQYTRNTAIDLIQHGIRVNSISPGLVATGFGSAMGMPEETSKKFYSTMATMKECVPAGVMGQPQDIAEVIAFLADRKTSSYIIGHQLVVDGGSSLIMGLHCQDFAKLLH | soluble
6 | MKTKEDMQELYFPTPKLIEWENGVRQYSTVRGDTEVLMSYVPPHTNVEPHQHKEVQIGMVVSGELMMTVGDVTRKMTALESAYIAPPHVPHGARNDTDQEVIAIDIKRLKADETYTSPEDYFLDIFKTRDLLPGMEVTFFVEDWVEIMLAKIPGNGGEMPFHKHRNEQIGICIGGGYDMTVEGCTVEMKFGTAYFCEPREDHGAINRSEKESKSINIFFPPRYNRAKAKKMKADELEHHHHHH | soluble
7 | MGSDKIHHHHHHMIKSKLKGFAAVTVACLAVTACGSDSNNEDGTDQNATYVQFYNASAGSTATALKVADKTYESVIYGDTMPRFTSTAGVSAIEVMAKDASDKDISIYKEDIDLKVATDHFFVLHGDFAEPKLLNINYSRTELDKLNEVAENSKMQLLIANTAVHAQAFDAYVSKSTQTFADAVMLGSVAYGEASQPQVMDTGEYKVYLTPAGTTNVSYTTANIKFSAKVPYKLIIREGFGASDSKITLDSVDSTTNVRNHVALEASVDYRVFNGLGSHIIDVKVASSKQETLFSEVPSFGVTAYQGAEFNDFGVSVFDHGTQNKLLDNVLITLNQDDIKTIFIYEQATEQGSQVKAMEMKQTQTPSPYSFKFDIVSFADKSNLTVYFLKANDTIETAVNKITAVNPASPQSVTVPAGEYSIKVIAVENGTKTVVYASDLMDFSNEDNVTMVLNKDPATSFGYNLIKI | not soluble
8 | MKKALMICAAGTMIFVSYSAENTAPEVSKAVEDRITKDYDQDGVYSSYEKALRRAQGSIYVTLPEKRGEWYSTLDKIKEEEKELMPDEEARMRRKR | not soluble
9 | SLRKIANSITEPIEQLVTAMKSVQHSGIEAGVSLSLPEHTQDEAGMLNRHFTVMMKRINELMEENVEKQLIIKETELKALQAQINPHFLYNTLESINWLAKANQQKQISKMVESLGFLLRNSIHMKKDIVTIQEEADIVRHYMTIQRFRFEERLKFTLDIDDEVKHCLIPKLTLQPLAENAIQYALEPFTRPCAIRIQAKKAKGCVCITVEDNGPGMDGRILESTGGRGIGLWNIRERISLTFGEPYGLRIHSEHEKGTRIVITIPCRNEVV | soluble
10 | MEEKKPVNLVLPEVENAIFIEGYPGVGLVGHIAANFLAKELDMDLIGYVDSLFIPPMSLILEGRPTPPLRFYGKNNIIIAIADIFLPPTLVNEIAKEIVNYLKKVNAEKVISLAGMGIGFFKDTFEVWGIGGSEEENKELESLGVKILKYGSITGMSGKLLWEASRAGLKSYVLLGETFGDRPDPRAAANVVEVLNKMLGLNVSVEPLLKEAEMIEEQLRRMHEQMEEARRKMERQYETMYL | not soluble
11 | MKPDSNGVYAYDMKISKKLTMAYKNDNPAKHATPVDYDYKTQTWSKREPNQLMDCFQNYSFNHISDPGDANRMEDVLVVDGLHKRVISINGDMPGAPVVVPYMSEVWIRVSNQILMDSMTIHVHGIDKHGMWYMDGVAFVQQCPIQSTNKFEYRFIADNKGTHWYHGHMQTDRGDGIAGGFIVVDQNDTSVPTLDDRKRIVPSREYFFLLQDWATKVGEEAWMQLEDKTMKWMYGYDDFTKCWEPTRTSDGGNVGGAVPISAILLNDKGWYDHDIIKSQPFNLPLERFQIKPNEDILFRIVNGGVAQELMLYVEGHPMTVVAADGDEVVPMKVDRLIVFPGERYDILIKGLATPTKKSYRIQVETVQKYFFDWKEIPIVYGFGYIEYETDGLPEDKTTPNLMHPECTQNKKCTVLNCPFQEWMAQPNFTCISYDKLENPNPEKIEAEILQATQFNGGFEEHFINMHHDSQMDQFLFQFPWGIPYYHDGDMETISTSCSQTACANNSMSDLDTTCRCFYHLEHKLNNIVQITLYNMGLGGAMGTGYAHPFHLHGHHFYVMKVGWPSYNGSGFIDQMNQDIDCPGRDVSCNGKKWRNKDWLGGALEAMNTKNPTKRDTITLPVGGYITIRFRAVNPGWWFAHCHLELHLMGGTGYAYKVGDQNQIYMPPDNFPHDCGVFKVDKLPELRLPTQKSSNIPYTFIAVCLVLIIDRIFH | not soluble
